{"source": "paper PMC6324732", "about": "(Cancer immunology research, 2018)", "key": {"[1]": {"biological_target": "HLA-A*02:01 heavy chain / β2-microglobulin (human)", "experiment": "differential scanning fluorimetry"}, "HLA-A2 [2]": {"tested_on": "HLA-A2", "conditions": "each complex refolded with HLA-A2 individually, DSF; cited from earlier work"}, "HLA-A2 [3]": {"tested_on": "HLA-A2", "conditions": "pep/HLA-A2 complexes; cited from earlier work"}, "[4]": {"tested_on": "HLA-A2-restricted T-cell response", "conditions": "HLA-A2-restricted epitopes; cited from earlier work"}, "[5]": {"biological_target": "HLA-A*02:01 heavy chain / β2-microglobulin (human)", "experiment": "differential scanning fluorimetry", "remark": "listed apart in the source"}}, "note": "Like-named read-outs stand apart in the source and are kept apart here.", "data": [{"molecule": "TAX peptide", "values": [{"measurement": "Tm of the peptide/HLA-A2 complex", "setting": "[1]", "value": 61.9, "unit": "°C"}]}, {"molecule": "YMDGTMSQV [Tyrosinase]", "values": [{"measurement": "Tm value determined by another lab", "setting": "HLA-A2 [2]", "value": 67.3, "unit": "°C"}]}, {"molecule": "FLTSVINRV", "values": [{"measurement": "half-life of the complex (reported)", "setting": "HLA-A2 [3]", "value": 22.3, "unit": "h"}, {"measurement": "immunogenicity (reported)", "setting": "[4]", "value": "immunogenic"}]}, {"molecule": "FLDEFMEGV", "note": "[ME-1 neoantigen peptide …]", "values": [{"measurement": "Tm of the peptide/HLA-A2 complex", "setting": "[5]", "value": 63.2, "unit": "°C"}]}, {"molecule": "VVMSWAPPV", "note": "[FNDC3B neoantigen peptide …]", "values": [{"measurement": "Tm of the peptide/HLA-A2 complex", "setting": "[5]", "value": 61.6, "unit": "°C"}]}, {"molecule": "LLLDDLLVSI", "note": "[PRDX5 neoantigen peptide …]", "values": [{"measurement": "Tm of the peptide/HLA-A2 complex", "setting": "[5]", "value": 55.3, "unit": "°C"}]}, {"molecule": "SLADEAEVYL", "note": "[GAS7 neoantigen peptide …]", "values": [{"measurement": "Tm of the peptide/HLA-A2 complex", "setting": "[5]", "value": 59.2, "unit": "°C"}]}, {"molecule": "VLHDDLLEA", "note": "[KIAA0223 neoantigen peptide …]", "values": [{"measurement": "Tm of the peptide/HLA-A2 complex", "setting": "[5]", "value": 59.7, "unit": "°C"}]}, {"molecule": "GIVEGLITTV", "note": "[GAPDH neoantigen peptide …]", "values": [{"measurement": "Tm of the peptide/HLA-A2 complex", "setting": "[5]", "value": 58.5, "unit": "°C"}]}, {"molecule": "SLFEGIDIYT", "note": "[HSP70 neoantigen peptide …]", "values": [{"measurement": "Tm of the peptide/HLA-A2 complex", "setting": "[5]", "value": 59.8, "unit": "°C"}]}, {"molecule": "FIASNGVKLV", "note": "[ACTININ neoantigen peptide …]", "values": [{"measurement": "Tm of the peptide/HLA-A2 complex", "setting": "[5]", "value": 56.9, "unit": "°C"}]}, {"molecule": "ILNAMIAKI", "note": "[HAUS3 neoantigen peptide …]", "values": [{"measurement": "Tm of the peptide/HLA-A2 complex", "setting": "[5]", "value": 56.9, "unit": "°C"}]}, {"molecule": "GLFGDIYLAI", "note": "[CSNK1A1 neoantigen peptide …]", "values": [{"measurement": "Tm of the peptide/HLA-A2 complex", "setting": "[5]", "value": 52.6, "unit": "°C"}]}, {"molecule": "ILDKVLVHL", "note": "[CLPP neoantigen peptide …]", "values": [{"measurement": "Tm of the peptide/HLA-A2 complex", "setting": "[5]", "value": 57.1, "unit": "°C"}]}, {"molecule": "ACDPHSGHFV", "note": "[CDK4 neoantigen peptide …]", "values": [{"measurement": "Tm of the peptide/HLA-A2 complex", "setting": "[5]", "value": 59.9, "unit": "°C"}]}, {"molecule": "FMPDFDLHL", "note": "[AHNAK neoantigen peptide …]", "values": [{"measurement": "Tm of the peptide/HLA-A2 complex", "setting": "[5]", "value": 60.1, "unit": "°C"}]}, {"molecule": "TLWCSPIKV", "note": "[SRPX neoantigen peptide …]", "values": [{"measurement": "Tm of the peptide/HLA-A2 complex", "setting": "[5]", "value": 63.7, "unit": "°C"}]}, {"molecule": "VLLGVKLFGV", "note": "[COL18A1 neoantigen peptide …]", "values": [{"measurement": "Tm of the peptide/HLA-A2 complex", "setting": "[5]", "value": 60.9, "unit": "°C"}]}, {"molecule": "ALIHHNTYL", "note": "[ERBB2 neoantigen peptide …]", "values": [{"measurement": "Tm of the peptide/HLA-A2 complex", "setting": "[5]", "value": 59.4, "unit": "°C"}]}, {"molecule": "VLENFTIFLV", "values": [{"measurement": "Tm of the peptide/HLA-A2 complex", "setting": "[5]", "value": 48.2, "unit": "°C"}]}, {"molecule": "SVLENFTIFL", "values": [{"measurement": "Tm of the peptide/HLA-A2 complex", "setting": "[5]", "value": 55.8, "unit": "°C"}]}, {"molecule": "ILTGLNYEV", "note": "[NSDHL neoantigen peptide …]", "values": [{"measurement": "Tm of the peptide/HLA-A2 complex", "setting": "[5]", "value": 61.4, "unit": "°C"}]}, {"molecule": "ALYGFVPVL", "note": "[GANAB neoantigen peptide …]", "values": [{"measurement": "Tm of the peptide/HLA-A2 complex", "setting": "[5]", "value": 61.7, "unit": "°C"}]}, {"molecule": "FLSDHLYLV", "note": "[CDC37L1 neoantigen peptide …]", "values": [{"measurement": "Tm of the peptide/HLA-A2 complex", "setting": "[5]", "value": 61.8, "unit": "°C"}]}, {"molecule": "HIAKSLFEV", "note": "[FLNA neoantigen peptide …]", "values": [{"measurement": "Tm of the peptide/HLA-A2 complex", "setting": "[5]", "value": 56.4, "unit": "°C"}]}, {"molecule": "FLLDEAIGL", "note": "[SPOP neoantigen peptide …]", "values": [{"measurement": "Tm of the peptide/HLA-A2 complex", "setting": "[5]", "value": 60.7, "unit": "°C"}]}, {"molecule": "VLAKKLKFV", "note": "[ACPP neoantigen peptide …]", "values": [{"measurement": "Tm of the peptide/HLA-A2 complex", "setting": "[5]", "value": 56.8, "unit": "°C"}]}, {"molecule": "LLHTELERFL", "note": "[DCAKD neoantigen peptide …]", "values": [{"measurement": "Tm of the peptide/HLA-A2 complex", "setting": "[5]", "value": 42.9, "unit": "°C"}]}, {"molecule": "TLLSQVNKV", "note": "[CIT neoantigen peptide …]", "values": [{"measurement": "Tm of the peptide/HLA-A2 complex", "setting": "[5]", "value": 53.2, "unit": "°C"}]}]}
